According to paper PMC4243959, “Sequestration of latent TGF-β binding protein 1 into CADASIL-related Notch3-ECD deposits” (Acta Neuropathologica Communications, 2014):
Blank lines part the entries; values can stand above or below the molecule they belong to.

Key:
[1] = biological target: recombinant human Notch3 encompassing aa 40-467 (N3EGF1-11-Fc) (human) (UniProt Q9UM47); assay: ELISA; solid-phase binding assay: 1 μg N3EGF1-11-Fc coated on Maxisorp plates in PBS overnight at 4°C, blocked with PBS/1% BSA; 50 μL conditioned supernatant of transfected HEK293T cells bound 1 h at room temperature; detection with anti-V5 or anti-LTBP-1 and anti-mouse-HRP; IgG1-Fc as control ligand
[2] = biological target: the molecule itself; assay: scanning for intensely fluorescent targets (SIFT); purified proteins labelled with different fluorescent dyes, pre-cleared at 100,000 g, incubated pairwise in solution; 64 nM LTBP-1 variants, 160 nM N3EGF1-5; confocal single-particle measurement after 24 h

fold binding over the control ligand IgG-Fc [1]: 4.9 fold
Molecule: full-length LTBP-1S (short human isoform of latent TGF-β binding protein 1, 1395 aa) with N-terminal HA tag and C-terminal V5-His tag (natural protein)

B1: LTBP-1ΔN containing a C-terminal V5-His tag (LTBP-1ΔN_V5) (domain or fragment, human, UniProt Q14766-2 528-1395, looked up)
chain: APEASTSSASQVIAPTQVTEINECTVNPDICGAGHCINLPVRYTCICYEGYRFSEQQRKCVDIDECTQVQHLCSQGRCENTEGSFLCICPAGFMASEEGTNCIDVDECLRPDVCGEGHCVNTVGAFRCEYCDSGYRMTQRGRCEDIDECLNPSTCPDEQCVNSPGSYQCVPCTEGFRGWNGQCLDVDECLEPNVCANGDCSNLEGSYMCSCHKGYTRTPDHKHCRDIDECQQGNLCVNGQCKNTEGSFRCTCGQGYQLSAAKDQCEDIDECQHRHLCAHGQCRNTEGSFQCVCDQGYRASGLGDHCEDINECLEDKSVCQRGDCINTAGSYDCTCPDGFQLDDNKTCQDINECEHPGLCGPQGECLNTEGSFHCVCQQGFSISADGRTCEDIDECVNNTVCDSHGFCDNTAGSFRCLCYQGFQAPQDGQGCVDVNECELLSGVCGEAFCENVEGSFLCVCADENQEYSPMTGQCRSRTSTDLDVDVDQPKEEKKECYYNLNDASLCDNVLAPNVTKQECCCTSGVGWGDNCEIFPCPVLGTAEFTEMCPKGKGFVPAGESSSEAGGENYKDADECLLFGQEICKNGFCLNTRPGYECYCKQGTYYDPVKLQCFDMDECQDPSSCIDGQCVNTEGSYNCFCTHPMVLDASEKRCIRPAESNEQIEETDVYQDLCWEHLSDEYVCSRPLVGKQTTYTECCCLYGEAWGMQCALCPLKDSDDYAQLCNIPVTGRRQPYGRDALVDFSEQYTPEADPYFIQDRFLNSFEELQAEECGILNGCENGRCVRVQEGYTCDCFDGYHLDTAKMTCVDVNECDELNNRMSLCKNAKCINTDGSYKCLCLPGYVPSDKPNYCTPLNTALNLEKDSDLE
modifications: fluorescent dye label (dye and site not stated)
notes: numbers count on: the short isoform of 1395 aa; source: HEK293E, purified (metal-ion matrix, via His tag); not shown: V5, C-terminal, kept; His, C-terminal, kept
binding result [2]: binds
